Data taken from patent US20190083583A1 (Alexion, published 2019).

Target: M6P receptor on the surface of human MPS IIIB skin fibroblasts (human)
Test: cell-based or functional assay

B1: recombinant human N-acetyl-alpha-D-glucosaminidase (rhNaGlu) produced in transgenic avian (Gallus) egg white (enzyme)
chain: DEAREAAAVRALVARLLGPGPAADFSVSVERALAAKPGLDTYSLGGGGAARVRVRGSTGVAAAAGLHRYLRDFCGCHVAWSGSQLRLPRPLPAVPGELTEATPNRYRYYQNVCTQSYSFVWWDWARWEREIDWMALNGINLALAWSGQEAIWQRVYLALGLTQAEINEFFTGPAFLAWGRMGNLHTWDGPLPPSWHIKQLYLQHRVLDQMRSFGMTPVLPAFAGHVPEAVTRVFPQVNVTKMGSWGHFNCSYSCSFLLAPEDPIFPIIGSLFLRELIKEFGTDHIYGADTFNEMQPPSSEPSYLAAATTAVYEAMTAVDTEAVWLLQGWLFQHQPQFWGPAQIRAVLGAVPRGRLLVLDLFAESQPVYTRTASFQGQPFIWCMLHNFGGNHGLFGALEAVNGGPEAARLFPNSTMVGTGMAPEGISQNEVVYSLMAELGWRKDPVPDLAAWVTSFAARRYGVSHPDAGAAWRLLLRSVYNCSGEACRGHNRSPLVRRPSLQMNTSIWYNRSDVFEAWRLLLTSAPSLATSPAFRYDLLDLTRQAVQELVSLYYEEARSAYLSKELASLLRAGGVLAYELLPALDEVLASDSRFLLGSWLEQARAAAVSEAEADFYEQNSRYQLTLWGPEGNILDYANKQLAGLVANYYTPRWRLFLEALVDSVAQGIPFQQHQFDKNVFQLEQAFVLSKQRYPSQPRGDTVDLAKKIFLKYYPRWVAGSW
modifications: N-linked glycans carrying mannose-6-phosphate (3.2 moles of M6P per mole of protein), mannose and GlcNAc; sites not stated
NaGlu enzymatic activity in human MPS IIIB fibroblasts after 24 h with 0.3 ug/mL rhNaGlu (cellular uptake): ~50 % of wild-type fibroblast activity
NaGlu enzymatic activity in human MPS IIIB fibroblasts after 24 h with 1 ug/mL rhNaGlu (cellular uptake): ~4 fold of wild-type fibroblast activity
NaGlu enzymatic activity in human MPS IIIB fibroblasts after 24 h with 30 ug/mL rhNaGlu (cellular uptake): ≥ 40 fold of wild-type fibroblast activity
